These results are taken from US6383734B1, “Method to determine inhibition of PAK3 activation of Raf-1” (Advanced Research and Technology Institute, Inc., priority 1998, dated 2002).

The target of one data set is T1, Raf-1 (Homo sapiens, UniProt P04049).
T1 construct: expressed in transfected cells; host or cells: COS-7
Description: Raf kinase activity after co-transfection of PAK3 constructs with Raf-1 (with or without Ras[V12]) into COS-7 cells. In kind it is cell-based. Here is the method:
(§1) B. Kinase assays. Kinase samples were assessed for their ability to phosphorylate 500 μM Raf-1 peptide (33,[…]345) (SEQ ID NO:4) in the presence of 500 μMATP (containing 2 μCi [γ-^32P]-ATP at 30° C. for 10 minutes. Incubations were analyzed by P-81 phosphocellulose paper assay. Phosphorylation of serine 338/339 in Raf-CR3 was determined by similar incubations containing 1 μg of substrate at 30° C. for 30-60 minutes. Proteins were resolved by SDS-PAGE, transferred to Immobilon-P and the dried, Ponceau S-stained membranes were autoradiographed. Raf-1 kinase activity was measured by the coupled assay method using GST-Mek 1, GST-Erk1 and myelin basic protein by the method of D. Stokoe et al., Science, 264, 1463 (1994).
F. Transfections. COS-7 cells were transfected with 10 μg of each plasmid DNA (pcEXV3 containing Ras^[V12], myc-Raf, myc-Raf-CX or pJ3H containing PAK3) by electroporation. Cells were lysed three days post-transfection in the presence of protease and phosphatase inhibitors and Raf-1 kinase activity was then examined as described by Stokoe et al., cited above. Transfection/expression efficiencies were assessed by densitometric scanning of Western blots of immunoprecipitates as well as cell lysates and data sets were normalized accordingly.

The next data set concerns Raf-1 serine 338/339. Description: In vitro kinase assay with Raf-1 peptide and Raf-CR3 as substrates. In kind it is biochemical, human. The procedure: as §1
D. Expression of recombinant Raf-CR3 in E. Coli. DNA sequences encoding residues 307-648 of human c-Raf-1 were amplified by polymerase chain reaction using the 5′-primer […] (SEQ ID NO:5) and the 3′-primer […] (SEQ ID NO:6). The amplified DNA was purified, digested with EcoRI and XhoI and cloned into the Stratagene pCAL-n vector. The entire Raf-CR3 coding sequence was verified by termination reaction PCR DNA sequencing. Raf-CR3 D338E339 and A338A339 substitution mutants were generated by site-directed mutagenesis using the Promega Altered SitesTM in vitro mutagenesis system. Raf-CR3-calmodulin binding protein fusions were expressed in E. coli strain BL21 (pLysS). […]

Regarding “wild type PAK3: wild type p21-activated protein kinase PAK3, expressed from plasmid in COS-7 cells”, the “increase of Raf-CX or Ras[V12]-inducible Raf-1 activation on co-expression” value in the data set with Raf-1 is given as “did not significantly increase”.

For the substance “Recombinant PAK3: recombinant His-tagged mouse PAK3 from Sf9 cells”, the “stimulation of Raf-1 peptide and Raf-CR3 serine 338/339 kinase activity by GTPase” value with Raf-1 serine 338/339 (co-incubation with GST-Rac-GTPγS or GST-Cdc42-GTPγS, FIGS. 4c and 4d) is reported as “stimulated up to six-fold”.

As to “p37: 37-kD Raf-1 serine 338/339 kinase purified from rat spleen, a proteolytically cleaved catalytic domain of PAK3”, the “specific activity (Raf-1 peptide phosphorylation)” value with Raf-1 serine 338/339 (kinase purified from rat spleen, Mono-P eluate) is recorded as 19,500 pmol/min/mg.
